The values below come from patent US12414933B2, “Polyphosphazene drug carriers” (ONSELEX PHARMACEUTICALS, INC., priority 2019, dated 2025).

For the data set, the system named is Sprague-Dawley rats. As to the kind of experiment: Intravenous toxicity study: maximum tolerated dose after a single IV injection, 7-day observation. The format is in vivo, rat. The source says:
The objective of this study was to determine the maximum tolerated dose in test animals following a single parenteral administration, in this case an intravenous (IV) injection, of the drug delivery compositions to Sprague-Dawley rats followed by a 7-day observation period.
In this Example, drug delivery compositions were optimized to carry and deliver the active chemotherapeutic agent Paclitaxel (PTX at about 5%). (See, Table 5 infra). Briefly, under sterile conditions in a laminar flow cabinet sterile water for formation and injection purposes was added to the appropriate amount of drug deliver composition to provide concentrations of 350, 817, 1167, and 1750 mg/mL. The diluted drug deliver compositions were stirred, mixed, or vortexed as necessary to achieve sufficient distribution. The prepared drug deliver compositions were stored protect from light at ambient temperature. The final formulation for each concentration was passed through a 0.2 μm filter prior to administration. The target volume prepared for each dose was 1.55 mL. The actual volume dispensed post-filtering was recorded. Final formulations for administration can be used up to 4 hours after preparation.
Subjects in this Example consisted of age appropriate to weight intact male Sprague-Dawley rats. Various commercial sources of Sprague-Dawley rats are acceptable for supply of Subject animals. Maximum Subject animal weight at initiation of the administrations was 330 gm while minimum weight was 260 gm. Subject animals were housed, feed, provided watered ad libitum, and observed according to standard animal husbandry protocols. Subject animals were excluded for any observable disease or injury that could affect study outcome. […]

Regarding “[NP(MPEG550)3(Lys-OEt)(AA)(PTX)]n [PETTAX-121]”, the “Clinical results: morbidity / euthanasia” value (Group 4: single slow bolus IV 8750 mg/kg PETTAX-121 (PTX 437.5 mg/kg), 1 male rat) is reported as “euthanized 20 hours after administration due to observed morbidity”. Moreover, for the setting “Groups 1-3: single slow bolus IV 1750, 4083 and 5833 mg/kg PETTAX-121 (PTX 87.5, 204.2, 291.7 mg/kg), 1 male rat per group, 7-day observation”, the “Clinical results: tolerability / adverse reactions” value was “tolerated their respective administration well with no observed adverse reactions or clinically significant observations”. Also, the “Clinical results: physical changes” value (Groups 1-3: single slow bolus IV 1750, 4083 and 5833 mg/kg PETTAX-121, 1 male rat per group, 7-day observation) is “no significant physical changes”.
